Data from patent US20030170748A1 (IAMS, published 2003).
Read-outs that look alike come from different tables or passages of the source. Square brackets hold non-standard residues; d marks the D form. Ends that are not written are not given here. βAla = NCCC(=O)O

Columns and labels:
canine PepT1 (cPepT1) [1] = molecular target: T1, canine PepT1 (cPepT1) (canine, UniProt Q8WMX5 1-708); assay: cell-based or functional assay
T1 sequence: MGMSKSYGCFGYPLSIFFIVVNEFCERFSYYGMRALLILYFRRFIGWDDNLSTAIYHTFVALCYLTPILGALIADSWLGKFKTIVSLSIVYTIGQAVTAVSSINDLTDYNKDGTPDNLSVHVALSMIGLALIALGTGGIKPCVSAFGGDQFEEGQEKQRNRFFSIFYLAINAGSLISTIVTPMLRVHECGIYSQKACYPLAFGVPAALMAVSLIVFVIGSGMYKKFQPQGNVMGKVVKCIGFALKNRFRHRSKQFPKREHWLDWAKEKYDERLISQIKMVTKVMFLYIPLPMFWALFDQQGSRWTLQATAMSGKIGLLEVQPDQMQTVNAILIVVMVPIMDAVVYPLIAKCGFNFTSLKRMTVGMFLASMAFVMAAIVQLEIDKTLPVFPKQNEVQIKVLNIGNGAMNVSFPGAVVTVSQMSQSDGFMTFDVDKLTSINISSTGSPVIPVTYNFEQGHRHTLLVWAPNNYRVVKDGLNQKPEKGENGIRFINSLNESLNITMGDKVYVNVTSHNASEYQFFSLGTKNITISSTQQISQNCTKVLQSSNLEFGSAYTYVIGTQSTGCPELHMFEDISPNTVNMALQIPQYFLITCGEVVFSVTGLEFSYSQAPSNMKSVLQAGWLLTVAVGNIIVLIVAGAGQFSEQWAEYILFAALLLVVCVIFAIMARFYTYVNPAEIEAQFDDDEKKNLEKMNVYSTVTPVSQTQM

canine PepT1 (cPepT1) [2] = molecular target: T1, canine PepT1 (cPepT1); assay: inhibition of H+-dependent 100 µM [3H]GlySar uptake by MDCK cells; Ki by graphical analysis of IC50 experiments; competitor GlySar
canine PepT1 (cPepT1) [3] = molecular target: T1, canine PepT1 (cPepT1); assay: cell-based or functional assay; remark: listed apart in the source
canine PepT1 (cPepT1) [4] = molecular target: T1, canine PepT1 (cPepT1); assay: cell-based or functional assay; remark: listed apart in the source

MetMet (peptide)
% inhibition of H+-dependent GlySar uptake (1 mM substrate, 100 µM GlySar, MDCK cells) (canine PepT1 (cPepT1) [1]): 100%

TrpLeu (peptide)
% inhibition of H+-dependent GlySar uptake (100 µM substrate, 100 µM GlySar, MDCK cells; Leu-containing peptides experiment) (canine PepT1 (cPepT1) [1]): 94% | % inhibition of H+-dependent GlySar uptake (100 µM substrate, 100 µM GlySar, MDCK cells; Trp-containing peptides experiment) (canine PepT1 (cPepT1) [1]): 92% | % inhibition of H+-dependent GlySar uptake (1 mM substrate, 100 µM GlySar, MDCK cells) (canine PepT1 (cPepT1) [1]): 116% | % inhibition of pH 6.0 uptake, 10 mM competitor, collagen (canine PepT1 (cPepT1) [1]): 8% | % inhibition of pH 6.0 uptake, 10 mM competitor, poly-L-lysine (canine PepT1 (cPepT1) [1]): 8.1% | Glysylsarcosine uptake, pH 6.0, with 10 mM competitor, MDCK cells on collagen (pmol 30 min^-1 mg^-1 protein) (canine PepT1 (cPepT1) [1]): 5.21 | Glysylsarcosine uptake, pH 6.0, with 10 mM competitor, MDCK cells on poly-L-lysine (pmol 30 min^-1 mg^-1 protein) (canine PepT1 (cPepT1) [1]): 3.44 | inhibition of H+-dependent 100 µM GlySar uptake by 1 mM peptide, MDCK cells (canine PepT1 (cPepT1) [1]): 117% | inhibition of H+-dependent GlySar uptake by 10 mM peptide, MDCK cells on collagen (canine PepT1 (cPepT1) [1]): 92% | inhibition of H+-dependent GlySar uptake by 10 mM peptide, MDCK cells on poly-L-lysine (canine PepT1 (cPepT1) [1]): 92% | Ki (canine PepT1 (cPepT1) [2]): 200 nM

glycylsarcosine (GlySar) (peptide)
Km of H+-dependent GlySar uptake by MDCK cells (FIG. 12 legend) (canine PepT1 (cPepT1) [1]): 1000 µM | apparent Km of H+-dependent GlySar uptake by MDCK cells grown in LHM (canine PepT1 (cPepT1) [1]): 1100 µM | apparent Km of total GlySar uptake by confluent MDCK cells, pH 6.0 (canine PepT1 (cPepT1) [1]): 4 mM | self-inhibition of 100 µM GlySar uptake by 1 mM GlySar, MDCK cells (canine PepT1 (cPepT1) [1]): 64%

TrpGlyGly (peptide)
% inhibition of H+-dependent GlySar uptake (1 mM substrate, 100 µM GlySar, MDCK cells) (canine PepT1 (cPepT1) [1]): 33% | inhibition of 100 µM GlySar uptake by 1 mM peptide, MDCK cells (canine PepT1 (cPepT1) [1]): 73%

LeuMet (peptide)
% inhibition of H+-dependent GlySar uptake (100 µM substrate, 100 µM GlySar, MDCK cells; Leu-containing peptides experiment) (canine PepT1 (cPepT1) [1]): 80%

MetPhe (peptide)
% inhibition of H+-dependent GlySar uptake (1 mM substrate, 100 µM GlySar, MDCK cells) (canine PepT1 (cPepT1) [1]): 100%

TrpTrp (peptide)
% inhibition of H+-dependent GlySar uptake (100 µM substrate, 100 µM GlySar, MDCK cells; Trp-containing peptides experiment) (canine PepT1 (cPepT1) [1]): 62% | % inhibition of H+-dependent GlySar uptake (1 mM substrate, 100 µM GlySar, MDCK cells) (canine PepT1 (cPepT1) [1]): 119% | Ki (canine PepT1 (cPepT1) [2]): 750 nM

GGGGG [[Gly]5]
inhibition of H+-dependent 100 µM GlySar uptake by 1 mM peptide, MDCK cells (canine PepT1 (cPepT1) [3]): 7.3% | % inhibition of H+-dependent GlySar uptake (1 mM substrate, 100 µM GlySar, MDCK cells) (canine PepT1 (cPepT1) [4]): 9%

[βAla]-His [Carnosine (β-AlaHis)]
% inhibition of H+-dependent GlySar uptake (1 mM substrate, 100 µM GlySar, MDCK cells) (canine PepT1 (cPepT1) [4]): 50%

MGMM [MetGlyMetMet (SEQ ID NO:10)]
% inhibition of H+-dependent GlySar uptake (1 mM substrate, 100 µM GlySar, MDCK cells) (canine PepT1 (cPepT1) [4]): 50%

LW [LeuTrp]
inhibition of H+-dependent 100 µM GlySar uptake by 1 mM peptide, MDCK cells (canine PepT1 (cPepT1) [3]): 114% | % inhibition of H+-dependent GlySar uptake (1 mM substrate, 100 µM GlySar, MDCK cells) (canine PepT1 (cPepT1) [4]): 113%

GGGG [[Gly]4]
inhibition of H+-dependent 100 µM GlySar uptake by 1 mM peptide, MDCK cells (canine PepT1 (cPepT1) [3]): 23% | % inhibition of H+-dependent GlySar uptake (1 mM substrate, 100 µM GlySar, MDCK cells) (canine PepT1 (cPepT1) [4]): 19%
